Data taken from PMC11883000, “Structure-function relationship of ASH1L and histone H3K36 and H3K4 methylation” (Nature Communications, 2025).
“Also recorded” adds a separate entry of the source.

Columns and labels:
Type in all cases: binding
147 bp 601 DNA = test: EMSA with 147 bp 601 DNA; conditions: 0.05 µM 147 bp 601 DNA, increasing protein, 25 mM Tris pH 7.5, 20 mM NaCl, 20% glycerol, on ice 5 min, at least in duplicate
H3K4me3-NCP = conditions: EMSA
unmodified 187 bp NCP = test: EMSA with unmodified 187 bp NCP
unmodified 147 bp NCP = test: EMSA with unmodified 147 bp NCP; conditions: 0.025 µM nucleosome, pH 7.5, compared to H3K4me3-NCP

| Molecule | DNA binding (147 bp 601 DNA) | other results |
| --- | --- | --- |
| ASH1LBD-PHD: Human ASH1L construct (aa 2430-2629) (protein) NIEVARAARLAQIFKEICDGIISYKDSSRQALAAPLLNLPPKKKNADYYEKISDPLDLITIEKQILTGYYKTVEAFDADMLKVFRNAEKYYGRKSPVGRDVCRLRKAYYNARHEASAQIDEIVGETASEADSSETSVSEKENGHEKDDDVIRCICGLYKDEGLMIQCDKCMVWQHCDCMGVNSDVEHYLCEQCDPRPVDREVP | decreased |  |
| ASH1LBD-PHD-BAH: Human ASH1L construct (aa 2436-2833) (protein, UniProt Q9NR48 2436-2833, looked up, fragment) NIEVARAARLAQIFKEICDGIISYKDSSRQALAAPLLNLPPKKKNADYYEKISDPLDLITIEKQILTGYYKTVEAFDADMLKVFRNAEKYYGRKSPVGRDVCRLRKAYYNARHEASAQIDEIVGETASEADSSETSVSEKENGHEKDDDVIRCICGLYKDEGLMIQCDKCMVWQHCDCMGVNSDVEHYLCEQCDPRPVDREVPMIPRPHYAQPGCVYFICLLRDDLLLRQGDCVYLMRDSRRTPDGHPVRQSYRLLSHINRDKLDIFRIEKLWKNEKEERFAFGHHYFRPHETHHSPSRRFYHNELFRVPLYEIIPLEAVVGTCCVLDLYTYCKGRPKGVKEQDVYICDYRLDKSAHLFYKIHRNRYPVCTKPYAFDHFPKKLTPKKDFSPHYVPDNY | restored; also recorded: further increased | preference over 147bp-NCP (H3K4me3-NCP; H3K4me3-NCP over 147bp-NCP): maintained; preference over 147bp-NCP (unmodified 187 bp NCP; 187bp-NCP over 147bp-NCP): maintained; also recorded: this preference was retained |
| ASH1LBD: Human ASH1L bromodomain (aa 2430-2564) (protein, left off: GST, end not stated, cleaved) LAAAEENIEVARAARLAQIFKEICDGIISYKDSSRQALAAPLLNLPPKKKNADYYEKISDPLDLITIEKQILTGYYKTVEAFDADMLKVFRNAEKYYGRKSPVGRDVCRLRKAYYNARHEASAQIDEIVGETASE | forms a complex with DNA |  |
| K2524Q/R2528Q/K2529Q mutant: K2524Q/R2528Q/K2529Q mutant of ASH1LBD (protein, UniProt Q9NR48 2430-2564, looked up, variant K2524Q R2528Q K2529Q, bromodomain, K2524Q/R2528Q/K2529Q mutant of ASH1LBD) LAAAEENIEVARAARLAQIFKEICDGIISYKDSSRQALAAPLLNLPPKKKNADYYEKISDPLDLITIEKQILTGYYKTVEAFDADMLKVFRNAEQYYGQQSPVGRDVCRLRKAYYNARHEASAQIDEIVGETASE | lost its ability to bind DNA |  |
| K2477Q/K2478Q/K2479Q mutant: K2477Q/K2478Q/K2479Q mutant of ASH1LBD (protein, UniProt Q9NR48 2430-2564, looked up, variant K2477Q K2478Q K2479Q, bromodomain, K2477Q/K2478Q/K2479Q mutant of ASH1LBD) LAAAEENIEVARAARLAQIFKEICDGIISYKDSSRQALAAPLLNLPPQQQNADYYEKISDPLDLITIEKQILTGYYKTVEAFDADMLKVFRNAEKYYGRKSPVGRDVCRLRKAYYNARHEASAQIDEIVGETASE | diminished |  |
| ASH1LPHD-BAH: Human ASH1L construct (aa 2579-2794 and 2579-2834) (protein, UniProt Q9NR48 2579-2834, looked up, fragment, also 2579-2794 construct) HEKDDDVIRCICGLYKDEGLMIQCDKCMVWQHCDCMGVNSDVEHYLCEQCDPRPVDREVPMIPRPHYAQPGCVYFICLLRDDLLLRQGDCVYLMRDSRRTPDGHPVRQSYRLLSHINRDKLDIFRIEKLWKNEKEERFAFGHHYFRPHETHHSPSRRFYHNELFRVPLYEIIPLEAVVGTCCVLDLYTYCKGRPKGVKEQDVYICDYRLDKSAHLFYKIHRNRYPVCTKPYAFDHFPKKLTPKKDFSPHYVPDNYK | forms a tight complex with 601 DNA | binding to H3K4me3-NCP (H3K4me3-NCP; 0.025 µM nucleosome, increasing protein, pH 7.5, on ice 5 min): formed a tight complex; binding to unmodified 147 bp NCP (unmodified 147 bp NCP): decreased; binding to unmodified 187 bp NCP (unmodified 187 bp NCP; 0.025 µM nucleosome, pH 7.5, compared to unmodified 147 bp NCP): increased |
